For one test, the target named is T1, human IL2Ra (human, UniProt P01589 22-240, limits assumed).
T1 construct: coated on the ELISA plate; also called IL-2 receptor alpha
T1 sequence (looked up): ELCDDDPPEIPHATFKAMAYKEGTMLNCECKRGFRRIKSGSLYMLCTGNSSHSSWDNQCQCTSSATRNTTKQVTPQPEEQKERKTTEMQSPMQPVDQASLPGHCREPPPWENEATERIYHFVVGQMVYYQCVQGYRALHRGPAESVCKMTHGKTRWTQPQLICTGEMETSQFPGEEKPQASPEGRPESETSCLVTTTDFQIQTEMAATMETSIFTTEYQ
Description: ELISA on coated IL2Ra, signal ratio to isotype control. As for the experimental part:
IL2RA (Peprotech, Germany, #200-02RC) was coated at 1 or 0 μg/ml (buffer only control) in 30 μl coating buffer (Candor, #113500) per well on a 384 well microtiter plate (Maxisorb, Nunc, #460518) over night at 4-8° C. After two washes with 50 μl/well washing buffer (PBS+0.05% Tween, pH 7.4), the plates were incubated for two hours at room temperature with 50 μl/well SmartBlock (Candor, #113500). After blocking, the plates were washed three times with washing buffer. Then, a dilution series of the respective antibody (1E-7 [M] down to 2E-13 [M]) in PBS+0.05% Tween, 10% SmartBlock were added in 30 μl to the microtiter plate and incubated for 90 min at room temperature. After three additional washes, 30 μl anti mouse IgG HRP-conjugated antibody (Biotechne, HAF007), diluted 1:1000 in PBS+0.05% Tween (pH 7.4), were added per well and incubated for one hour. […] Relative fluorescence was measured with a microtiter plate reader at 535/590 nm.
Bispecific antibodies were subjected to the experimental assay procedure described in Example 20. Ratios of the signals generated at an antibody concentration of 1E-07 [M] by the respective bispecific antibody versus those of an isotype control antibody were calculated and are shown in Table E29. […]

The target of the next test is T2, human IL-11 (human, UniProt P20809 22-199).
T2 construct: Invigate recombinant protein; biotinylated when immobilized in the Di-complex ELISA; also called hIL11; hIL-11
T2 sequence: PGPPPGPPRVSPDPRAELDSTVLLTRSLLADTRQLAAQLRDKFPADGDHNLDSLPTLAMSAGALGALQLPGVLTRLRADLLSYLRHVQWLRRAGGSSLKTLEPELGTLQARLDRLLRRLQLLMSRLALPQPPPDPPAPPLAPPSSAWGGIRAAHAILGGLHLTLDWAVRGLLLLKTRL
As to the kind of experiment: Tri-complex ELISA, hIL-11 + mIL-11Ra-Fc + hgp130-Fc, inhibition of complex formation. For orientation: An ELISA detects its analyte on a solid surface through an enzyme-linked reagent.

B1: TPP-29697 (bispecific antibody, IgG1)
chain 1: QVQLVESGGGVVQPGRSLRLSCAASGFTFSHYDMHWVRQAPGKGLEWVAVISYHGSVKFYADSVKGRFTISRDNSKNTLYLQMNSLRAEDTAVYYCARTPGFHFDYWGQGTLVTVSSGGGGSGGGGSGGGGSQSVLTQPPSASGTPGQRVTISCSGSSSNIGSNYVSWYQQLPGTAPKLLIYYDDLRPSGVPDRFSGSKSGTSASLAISGLRSEDEADYYCSAWDDSLSGVVFGGGTKLTVLGGGGSGGGGSGGGGSGVECPPCPAPPVAGPSVFLFPPKPKDTLMISRTPEVTCVVVGVSHEDPEVKFNWYVDGVEVHNAKTKPREEQYNSTYRVVSVLTVLHQDWLNGKEYKCKVSNKQLPSPIEKTISKAKGQPREPQVYTLPPCRDELTKNQVSLWCLVKGFYPSDIAVEWESNGQPENNYKTTPPVLDSDGSFFLYSKLTVDKSRWQQGNVFSCSVMHEALHNHYTQKSLSLSPGK
chain 2: EVQLLESGGGLVQPGGSLRLSCAASGFTFSSYGMHWVRQAPGKGLEWVAVISYDGSYKYYADSVKGRFTISRDNSKNTLYLQMNSLRAEDTAVYYCAAGVPDYWGQGTLVTVSSGGGGSGGGGSGGGGSQSVLTQPPSASGTPGQRVTISCSGSSSNIGSDYDVHWYQQLPGTAPKLLIYSNEERPSGVPDRFSGSKSGTSASLAISGLRSEDEADYYCSAWDSSLSGPVFGGGTKLTVLGGGGSGGGGSGGGGSGVECPPCPAPPVAGPSVFLFPPKPKDTLMISRTPEVTCVVVGVSHEDPEVKFNWYVDGVEVHNAKTKPREEQYNSTYRVVSVLTVLHQDWLNGKEYKCKVSNKQLPSPIEKTISKAKGQPREPQVCTLPPSRDELTKNQVSLSCAVKGFYPSDIAVEWESNGQPENNYKTTPPVLDSDGSFFLVSKLTVDKSRWQQGNVFSCSVMHEALHNHYTQKSLSLSPGK
notes: scFv-kih-hIgG1 with Fc-silencing mutations; bispecific comprising CDRs of TPP-29528 and TPP-29519
In general, IC50 refers to the concentration needed to halve the response being measured. For the molecule B1, in the test with human IL2Ra, the binding result is “no binding (tested: 1E-07 M antibody)”. For the same molecule, in the test with human IL-11, the “Efficacy (%)” value came out at 104% and the 50% inhibitory concentration (IC50) stood at 1.6 nM.

The record behind these values is patent US20240317847A1 (Bayer, published 2024).
